The results in this text go back to paper doi:10.1101/2024.05.08.592267, “Origins and diversity of pan-isotype human bone marrow plasma cells” (bioRxiv, 2024).

For the test, the target named is T1, biotinylated natural Ara h 2 (Arachis hypogaea (peanut), natural …, UniProt Q6PSU2, biotin (position not given)).
T1 construct: Ara h 2, peanut allergen, 'natural' (not recombinant) protein; Natural Ara h 2 from peanut may be a mixture of isoforms; also called Biotin Natural Ara h 2; source: bought: InBio (biotinylated natural Ara h 2)
T1 sequence (Q6PSU2 whole entry, looked up, canonical isoform): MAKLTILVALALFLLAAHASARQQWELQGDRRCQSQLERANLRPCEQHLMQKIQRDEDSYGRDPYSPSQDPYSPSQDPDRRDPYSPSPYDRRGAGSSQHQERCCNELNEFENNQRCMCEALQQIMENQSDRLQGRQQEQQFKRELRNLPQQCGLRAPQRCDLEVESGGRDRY
Briefly: BLI; in-tandem epitope binning; biotinylated natural Ara h 2 loaded on streptavidin sensors; primary mAbs 10 ug/mL, secondary mAbs 5 ug/mL in kinetics buffer (Dulbecco's PBS, 1% BSA, 0.02% Tween-20); Octet R2. The note with it: both partners purified. (Biolayer interferometry detects binding as a change in optical thickness at a sensor tip.)

B1: 13T5 (monoclonal Ara h 2 specific antibody, Epitope 2) (antibody, V domains shown)
VH: QVQLQESGPGLVKPSETLSLTCTVSGGSMSSYYWGWIRQPAGRGLEWIGRIFTTGSTIYNASLNSRVSMSVDTSKNQFSLKLTSVTAADTALYFCVRDRRGRSHDSNWYWYFDLWGRGTLVTVSS
VL: DIVMTQSPSSLSASVGDRVIITCRTSQTLSRNLNWYQQKPGEAPKLLIYGASTLQSGVPSRFTGSGSGTDFTLIISSLQPEDFATYYCQQSDNTPRTFGQGTKVEIK
For B1, the binding result was “binds”.
